From patent publication US20190300590A1 (PROTAGONIST THERAPEUTICS, published 2019)
Read-outs that look alike come from different tables or passages of the source. Each block holds one binder with its values, some of them ahead of it. *1 amine or outer side, *2 acyl side, *3 side chain or, on linkers, in order; H or OH if unused. Bridges are numbered along the chain shown (N, C = ends). Primed or numbered codes have the meaning given here. Side-chain parts run from the residue outwards. [ ]: non-standard residue; d: D form. Phe(4-OMe)(3) = O-methyl-L-tyrosine (4-methoxy-L-phenylalanine), COc1ccc(C[C@H](N[*:1])C(=O)[*:2])cc1; Phe(4-Oallyl) = 4-allyloxy-phenylalanine (O-allyl-tyrosine), C=CCOc1ccc(C[C@H](N[*:1])C(=O)[*:2])cc1; Phe(4-OMe) = 4-methoxy-L-phenylalanine (O-methyl-L-tyrosine), COc1ccc(C[C@H](N[*:1])C(=O)[*:2])cc1; Phe(Bzl) = read as Phe(4-OBzl), O-benzyl-L-tyrosine, O=C([C@H](Cc1ccc(OCc2ccccc2)cc1)N[*:1])[*:2]; Phe(4-OMe)(5) = O-methyl-L-tyrosine (4-methoxy-Phe), COc1ccc(C[C@H](N[*:1])C(=O)[*:2])cc1; Phe(4-OMe)″ = 4-methoxyphenylalanine, COc1ccc(C[C@H](N[*:1])C(=O)[*:2])cc1; Phe(4-OMe)(4) = O-methyl-L-tyrosine, COc1ccc(C[C@H](N[*:1])C(=O)[*:2])cc1; Phe(4-guanidino) = N=C(N)Nc1ccc(C[C@H](N)C(=O)O)cc1; Phe(4-CONH2) = NC(=O)c1ccc(C[C@H](N)C(=O)O)cc1; Phe(4-COOH) = N[C@@H](Cc1ccc(C(=O)O)cc1)C(=O)O; Tyr(Ph) = N[C@@H](Cc1ccc(Oc2ccccc2)cc1)C(=O)O; Phe(4-Me) = Cc1ccc(C[C@H](N)C(=O)O)cc1; 1Nal = N[C@@H](Cc1cccc2ccccc12)C(=O)O; 2Nal = N[C@@H](Cc1ccc2ccccc2c1)C(=O)O; AEF = NCCOc1ccc(C[C@H](N)C(=O)O)cc1; pGlu = O=C1CC[C@@H](C(=O)O)N1; αMeOrn = C[C@](N)(CCCN)C(=O)O; hLeu = CC(C)CC[C@H](N)C(=O)O; αMeK = C[C@](N)(CCCCN)C(=O)O; Orn = NCCC[C@H](N)C(=O)O; PEG2′ = not defined here; Abu = CC[C@H](N)C(=O)O; Dap = NC[C@H](N)C(=O)O; Aib = CC(C)(N)C(=O)O

Experiments:
IL23R_huFC [1] = target: T1, IL23R_huFC (human, UniProt Q5VWK5 24-353); assay: human ELISA vs IL-23
T1 sequence (looked up): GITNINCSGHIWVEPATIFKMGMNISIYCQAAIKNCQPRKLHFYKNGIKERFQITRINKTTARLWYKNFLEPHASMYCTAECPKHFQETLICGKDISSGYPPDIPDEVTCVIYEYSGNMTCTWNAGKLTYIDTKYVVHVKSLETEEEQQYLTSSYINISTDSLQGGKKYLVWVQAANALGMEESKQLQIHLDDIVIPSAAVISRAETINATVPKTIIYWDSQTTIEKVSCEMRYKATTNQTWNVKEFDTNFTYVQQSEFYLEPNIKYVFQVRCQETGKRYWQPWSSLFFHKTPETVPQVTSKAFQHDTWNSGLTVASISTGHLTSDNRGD

[2] = target: T2, IL-23R on human cells (IL-23R-expressing DB cells; human NK cells) (human, UniProt Q5VWK5 24-629); assay: cell-based or functional assay
T2 sequence (looked up): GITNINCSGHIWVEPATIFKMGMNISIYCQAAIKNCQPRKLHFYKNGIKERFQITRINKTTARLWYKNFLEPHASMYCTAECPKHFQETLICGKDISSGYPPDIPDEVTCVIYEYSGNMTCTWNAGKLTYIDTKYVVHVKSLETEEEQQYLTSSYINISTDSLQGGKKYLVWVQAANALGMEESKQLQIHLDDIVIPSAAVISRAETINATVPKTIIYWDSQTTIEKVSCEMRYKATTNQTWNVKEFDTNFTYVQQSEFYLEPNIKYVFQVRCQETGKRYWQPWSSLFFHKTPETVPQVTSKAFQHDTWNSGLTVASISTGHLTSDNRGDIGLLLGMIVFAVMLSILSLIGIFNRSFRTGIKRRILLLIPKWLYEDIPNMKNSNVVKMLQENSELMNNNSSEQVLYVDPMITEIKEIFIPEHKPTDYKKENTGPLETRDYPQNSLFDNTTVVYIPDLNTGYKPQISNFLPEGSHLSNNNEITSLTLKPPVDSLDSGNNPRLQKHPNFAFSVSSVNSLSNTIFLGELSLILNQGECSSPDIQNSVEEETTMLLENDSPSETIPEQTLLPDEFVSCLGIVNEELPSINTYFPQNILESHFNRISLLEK

IL23R_huFC [3] = target: T1, IL23R_huFC; assay: human ELISA vs IL-23; remark: listed apart in the source
Rat IL-23R_huFC = Rat IL-23R_huFC (rat); assay: rat ELISA vs IL-23
IL23R_huFC [4] = target: T1, IL23R_huFC; assay: human ELISA vs IL-23; remark: listed apart in the source

- IC50 (IL23R_huFC [1]): 10 to 25 nM
B1: Ac-Cyclo-[[Abu]-QTWQC]-[Phe[4-(2-aminoethoxy)]]-[2-Nal][α-MeLys]-[Dap(PEG2-Ac)]NG-NH2 (peptide)
peptide: Ac-[Abu]QTWQC[AEF][2Nal][αMeK][Dap]([PEG2′-Ac])NG-NH2
modifications: thioether 1-6

- pStat3 HTRF IC50 [2]: < 10 nM
- IC50 (IL23R_huFC [1]): 10 to 25 nM
B2: Ac-Cyclo-[[Abu]-QTWQC]-[Phe[4-(2-aminoethoxy)]]-[2-Nal]-[α-MeLys]-[Dap(pyroglutamic acid)]-NG-NH2 (peptide)
peptide: Ac-[Abu]QTWQC[AEF][2Nal][αMeK][Dap](pGlu)NG-NH2
modifications: thioether 1-6

- IC50 (IL23R_huFC [1]): 10 to 25 nM
B6: Ac-Cyclo-[[Abu]-QTWQC]-[Phe[4-(2-aminoethoxy)]]-W-[α-Me-Orn]-[Lys(Ac)]-NG-NH2 (peptide)
peptide: Ac-[Abu]QTWQC[AEF]W[αMeOrn]K(Ac)NG-NH2
modifications: thioether 1-6

- pStat3 HTRF IC50 [2]: < 10 nM
- IC50 (IL23R_huFC [1]): 10 to 25 nM
B7: Ac-Cyclo-[[Abu]-QTWQC]-[Phe[4-(2-aminoethoxy)]]-W-[Aib]-ENN-NH2 (peptide)
peptide: Ac-[Abu]QTWQC[AEF]W[Aib]ENN-NH2
modifications: thioether 1-6

- IC50 (IL23R_huFC [3]): 100 to 1000 nM
B9: Ac-Cyclo-[[Abu]-QTWQC]-[Phe[4-(2-aminoethoxy)]]-W-[Orn]-[Dap]-NG-NH2 (peptide)
peptide: Ac-[Abu]QTWQC[AEF]W[Orn][Dap]NG-NH2
modifications: thioether 1-6

- IC50 (IL23R_huFC [3]): 100 to 1000 nM
B10: Ac-Cyclo-[[Abu]-QTWQC]-[Phe[4-(2-aminoethoxy)]]-W-[Orn]-[Dap(Ac)]-NG-NH2 (peptide)
peptide: Ac-[Abu]QTWQC[AEF]W[Orn][Dap](Ac)NG-NH2
modifications: thioether 1-6

- IC50 (IL23R_huFC [3]): 100 to 1000 nM
B11: Ac-Cyclo-[[Abu]-[Dap]-TWQC]-[Phe[4-(2-aminoethoxy)]]-[Phe(4-Phenoxy)]-[α-MeLys]-[Lys(Ac)]-NG-NH2 (peptide)
peptide: Ac-[Abu][Dap]TWQC[AEF][Tyr(Ph)][αMeK]K(Ac)NG-NH2
modifications: thioether 1-6

- IC50 (Rat IL-23R_huFC): 25 to 100 nM
- IC50 (IL23R_huFC [4]): 25 to 100 nM
B13: Ac-Cyclo-[[Abu]-STWQC]-[Phe(4-OMe)]-[2-Nal][α-MeLys]-[Lys(Ac)]-NGE-NH2 (peptide)
peptide: Ac-[Abu]STWQC[Phe(4-OMe)(5)][2Nal][αMeK]K(Ac)NGE-NH2
modifications: thioether 1-6

- pStat3 HTRF IC50 [2]: < 10 nM
- IC50 (IL23R_huFC [1]): 10 to 25 nM
B15: Ac-Cyclo-[[Abu]-QTWQC]-[Phe[4-(2-aminoethoxy)]]-W-[hLeu]-ENG-NH2 (peptide)
peptide: Ac-[Abu]QTWQC[AEF]W[hLeu]ENG-NH2
modifications: thioether 1-6

- IC50 (IL23R_huFC [3]): 100 to 1000 nM
B16: Ac-Cyclo-[[Abu]-QTWQC]-[Phe[4-(2-aminoethoxy)]]-[Phe(4-CO2H)]-[α-MeLys]-[Lys(Ac)]-NG-NH2 (peptide)
peptide: Ac-[Abu]QTWQC[AEF][Phe(4-COOH)][αMeK]K(Ac)NG-NH2
modifications: thioether 1-6

- IC50 (IL23R_huFC [3]): 100 to 1000 nM
B18: Ac-Cyclo-[[Abu]-QTWQC]-[Phe[4-(2-aminoethoxy)]]-[Phe(4-CONH2)]-[α-MeLys]-[Lys(Ac)]-NG-NH2 (peptide)
peptide: Ac-[Abu]QTWQC[AEF][Phe(4-CONH2)][αMeK]K(Ac)NG-NH2
modifications: thioether 1-6

Second part, the binder before the results:

B3: Ac-Cyclo-[[Abu]-QTWQC]-[Phe(4-OMe)]-W-[α-MeLys]-[Lys(Ac)]-NGE-NH2 (peptide)
peptide: Ac-[Abu]QTWQC[Phe(4-OMe)]W[αMeK]K(Ac)NGE-NH2
modifications: thioether 1-6
- IC50 (IL23R_huFC [3]): 100 to 1000 nM

B4: Ac-Cyclo-[[Abu]-QT-[1-Nal]-QC]-[Phe(4-OMe)]-[2-Nal]-[α-MeLys]-[Lys(Ac)]-NG-NH2 (peptide)
peptide: Ac-[Abu]QT[1Nal]QC[Phe(4-OMe)(4)][2Nal][αMeK]K(Ac)NG-NH2
modifications: thioether 1-6
- IC50 (IL23R_huFC [3]): 100 to 1000 nM

B5: Ac-Cyclo-[[Abu]-QTWQC]-[Phe(4-OMe)]-W-[α-MeOrn]-ENG-NH2 (peptide)
peptide: XQTWQCFWXENG
modifications: as bracketed in name; thioether cyclo
- pStat3 HTRF IC50 [2]: < 10 nM
- IC50 (Rat IL-23R_huFC): 25 to 100 nM
- IC50 (IL23R_huFC [4]): 25 to 100 nM

B8: Ac-Cyclo-[[Abu]-DapTWQC]-[Phe[4-(2-aminoethoxy)]]-[Phe[4-(2-aminoethoxy)]]-[α-MeLys]-[Lys(Ac)]-NG-NH2 (peptide)
peptide: Ac-[Abu][Dap]TWQC[AEF][AEF][αMeK]K(Ac)NG-NH2
modifications: thioether 1-6
- IC50 (IL23R_huFC [3]): 100 to 1000 nM

B12: Ac-Cyclo-[[Abu]-QTWQC]-[Phe(4-OMe)]-[2-Nal][α-MeLys]-[Lys(Ac)]-NGE-NH2 (peptide)
peptide: Ac-[Abu]QTWQC[Phe(4-OMe)(3)][2Nal][αMeK]K(Ac)NGE-NH2
modifications: thioether 1-6
- pStat3 HTRF IC50 [2]: < 10 nM
- IC50 (Rat IL-23R_huFC): 25 to 100 nM
- IC50 (IL23R_huFC [4]): 25 to 100 nM

B14: Ac-Cyclo-[[Abu]-QTWQC]-[Phe(4-OMe)]-Phe(4-Me)-[α-MeLys]-ENG-NH2 (peptide)
peptide: Ac-[Abu]QTWQC[Phe(4-OMe)″][Phe(4-Me)][αMeK]ENG-NH2
modifications: thioether 1-6
- IC50 (IL23R_huFC [3]): 100 to 1000 nM

B17: Ac-Cyclo-[[Abu]-QTWQC]-[Phe(4-OMe)]-[Phe(Bzl)]-[α-MeLys]-ENG-NH2 (peptide)
peptide: Ac-[Abu]QTWQC[Phe(4-OMe)(3)][Phe(Bzl)][αMeK]ENG-NH2
modifications: thioether 1-6
- IC50 (IL23R_huFC [3]): 100 to 1000 nM

B19: Ac-Cyclo-[[Abu]-QTWQC]-[Phe(4-OMe)]-[Phe(4-Oallyl)]-[α-MeLys]-ENG-NH2 (peptide)
peptide: Ac-[Abu]QTWQC[Phe(4-OMe)(3)][Phe(4-Oallyl)][αMeK]ENG-NH2
modifications: thioether 1-6
- IC50 (IL23R_huFC [3]): 100 to 1000 nM

B20: Ac-Cyclo-[[Abu]-QTWQC]-[Phe(4-OMe)]-[Phe(4-guanidino)]-[α-MeLys]-ENG-NH2 (peptide)
peptide: Ac-[Abu]QTWQC[Phe(4-OMe)(3)][Phe(4-guanidino)][αMeK]ENG-NH2
modifications: thioether 1-6
- IC50 (IL23R_huFC [3]): 100 to 1000 nM
